# According to doi:10.1101/2024.09.02.610768 (bioRxiv, 2024):
# T1: FrzCDΔMA (DB-H1-H2) (Myxococcus xanthus, UniProt P43500 1-137, del138-417)
# T1 sequence: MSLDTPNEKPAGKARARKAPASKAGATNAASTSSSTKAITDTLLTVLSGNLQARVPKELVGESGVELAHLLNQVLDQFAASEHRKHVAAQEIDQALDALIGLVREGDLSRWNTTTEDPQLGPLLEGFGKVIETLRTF
# T2: FrzCD (Myxococcus xanthus, UniProt P43500 1-417)
# T2 sequence: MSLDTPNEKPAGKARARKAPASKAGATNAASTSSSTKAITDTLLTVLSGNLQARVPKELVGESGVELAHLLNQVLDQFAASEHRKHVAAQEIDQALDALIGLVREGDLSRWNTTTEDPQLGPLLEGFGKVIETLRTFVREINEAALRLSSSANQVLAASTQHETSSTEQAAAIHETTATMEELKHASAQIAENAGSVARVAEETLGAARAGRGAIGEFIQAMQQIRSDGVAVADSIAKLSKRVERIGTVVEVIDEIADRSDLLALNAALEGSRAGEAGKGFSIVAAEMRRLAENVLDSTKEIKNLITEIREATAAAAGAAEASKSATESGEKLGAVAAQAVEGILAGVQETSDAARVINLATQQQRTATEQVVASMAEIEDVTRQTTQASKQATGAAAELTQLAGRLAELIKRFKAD
# T3: FrzCDΔH1 (Myxococcus xanthus, UniProt P43500 1-417, del31-83)
# T3 sequence: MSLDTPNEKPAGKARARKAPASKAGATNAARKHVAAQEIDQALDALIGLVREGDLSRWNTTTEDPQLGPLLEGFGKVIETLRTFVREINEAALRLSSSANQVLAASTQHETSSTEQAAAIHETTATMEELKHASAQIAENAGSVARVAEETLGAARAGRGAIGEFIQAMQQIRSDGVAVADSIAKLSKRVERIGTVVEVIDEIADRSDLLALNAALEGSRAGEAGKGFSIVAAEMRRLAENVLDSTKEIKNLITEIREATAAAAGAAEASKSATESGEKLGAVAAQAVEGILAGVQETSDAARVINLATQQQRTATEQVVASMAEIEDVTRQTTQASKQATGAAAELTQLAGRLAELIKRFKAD
# T4: FrzCDΔH1ΔH2 (Myxococcus xanthus, UniProt P43500 1-417, del31-137)
# T4 sequence: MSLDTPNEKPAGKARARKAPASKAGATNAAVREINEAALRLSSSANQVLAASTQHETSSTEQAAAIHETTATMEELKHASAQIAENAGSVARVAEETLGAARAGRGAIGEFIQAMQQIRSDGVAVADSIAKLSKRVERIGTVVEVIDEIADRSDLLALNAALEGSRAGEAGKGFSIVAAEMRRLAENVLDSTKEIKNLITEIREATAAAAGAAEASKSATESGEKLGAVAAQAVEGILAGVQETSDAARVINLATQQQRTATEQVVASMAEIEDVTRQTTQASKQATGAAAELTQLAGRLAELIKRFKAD
# T5: FrzCDΔH2 (DB-H1-MA) (Myxococcus xanthus, UniProt P43500 1-417, del84-137)
# T5 sequence: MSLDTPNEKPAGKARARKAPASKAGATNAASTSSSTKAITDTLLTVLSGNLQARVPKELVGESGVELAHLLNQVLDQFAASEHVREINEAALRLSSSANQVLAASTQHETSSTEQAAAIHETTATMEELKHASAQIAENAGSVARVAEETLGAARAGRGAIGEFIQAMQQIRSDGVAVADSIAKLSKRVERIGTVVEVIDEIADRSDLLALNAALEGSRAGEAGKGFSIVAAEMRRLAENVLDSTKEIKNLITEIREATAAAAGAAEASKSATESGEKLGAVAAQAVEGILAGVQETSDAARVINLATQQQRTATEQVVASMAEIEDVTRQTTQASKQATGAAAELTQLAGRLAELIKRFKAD
# B1: 8 bp DNA (dsDNA)
# DNA 1: ACTGCAGT
# DNA 2: ACTGCAGT
# B2: 178 bp DNA (dsDNA)
# DNA 1: GGATCGCATCTGCCTACATCCCCAGCTCCCGGTCGGTCCGCTCGGAACCTAGCCCGGGTCAAAGACCCGGGGTCTATGTTGACCCATTTGGTGGGGATGGGTCTAATTGGACCTGGCGTTTTTTCGCGCCATGGAAATGTCAAGGCCCGTGATTCCAGACTGTTGGGCAGGGAGTT
# DNA 2: AACTCCCTGCCCAACAGTCTGGAATCACGGGCCTTGACATTTCCATGGCGCGAAAAAACGCCAGGTCCAATTAGACCCATCCCCACCAAATGGGTCAACATAGACCCCGGGTCTTTGACCCGGGCTAGGTTCCGAGCGGACCGACCGGGAGCTGGGGATGTAGGCAGATGCGATCC
# B3: 12 bp DNA (dsDNA)
# DNA 1: CTCACTATAGGG
# DNA 2: CCCTATAGTGAG
# B4: FrzCD^ΔH1ΔH2 (receptor, Myxococcus xanthus, UniProt P43500 1-417, looked up)
# chain: T4 sequence
# B5: FrzCD^ΔH1 (receptor, Myxococcus xanthus, UniProt P43500 1-417, looked up)
# chain: T3 sequence
# B6: FrzCD^ΔH2 (receptor, Myxococcus xanthus, UniProt P43500 1-417, looked up)
# chain: T5 sequence
# B7: FrzCD^ΔMA (domain or fragment, Myxococcus xanthus, UniProt P43500 1-137, looked up)
# chain: T1 sequence
# B8: 35 bp DNA (dsDNA)
# DNA 1: GTCACCTGCTCTAGCTAATAGACTGAGCCGAGGTG
# DNA 2: CACCTCGGCTCAGTCTATTAGCTAGAGCAGGTGAC
# B9: 8-base poly-A ssDNA (ssDNA)
# DNA: AAAAAAAA
# B10: FrzCD full-length (His6-tagged) (receptor, Myxococcus xanthus, UniProt P43500 1-417, looked up)
# chain: T2 sequence
# How the values were obtained:
# FrzCDΔMA (DB-H1-H2) [1] = target: T1, FrzCDΔMA (DB-H1-H2); test: EMSA
# FrzCD [2] = target: T2, FrzCD; test: EMSA
# FrzCDΔH1 [3] = target: T3, FrzCDΔH1; test: BLI
# FrzCD [4] = target: T2, FrzCD; test: BLI
# FrzCDΔH1ΔH2 [5] = target: T4, FrzCDΔH1ΔH2; test: BLI
# FrzCDΔH2 (DB-H1-MA) [6] = target: T5, FrzCDΔH2 (DB-H1-MA); test: BLI
# FrzCDΔMA (DB-H1-H2) [7] = target: T1, FrzCDΔMA (DB-H1-H2); test: EMSA; remark: listed apart in the source
# SEC-MALS = target: the molecule itself; test: SEC-MALS
# FrzCDΔH1ΔH2 [8] = target: T4, FrzCDΔH1ΔH2; test: EMSA
# FrzCDΔMA (DB-H1-H2) [9] = target: T1, FrzCDΔMA (DB-H1-H2); test: SEC-MALS
# FrzCDΔH1 [10] = target: T3, FrzCDΔH1; test: EMSA
# FrzCDΔH2 (DB-H1-MA) [11] = target: T5, FrzCDΔH2 (DB-H1-MA); test: EMSA
# FrzCD [12] = target: T2, FrzCD; test: SEC-MALS
binder,measurement,setting,value
B1,binding result,FrzCDΔMA (DB-H1-H2) [1],binds
same,binding result,FrzCD [2],binds
B2,Kd,FrzCDΔH1 [3],2270 nM
same,Kd,FrzCD [4],1070 nM
same,Kd,FrzCDΔH1ΔH2 [5],203 nM
same,Kd,FrzCDΔH2 (DB-H1-MA) [6],2640 nM
B3,binding result,FrzCDΔMA (DB-H1-H2) [7],binds
B4,stoichiometry N,SEC-MALS,4
B5,stoichiometry N,SEC-MALS,4
B6,stoichiometry N,SEC-MALS,4
B7,stoichiometry N,SEC-MALS,2
B8,binding result,FrzCDΔH1ΔH2 [8],binds
same,binding result,FrzCDΔMA (DB-H1-H2) [9],binds
same,binding result,FrzCDΔH1 [10],binds
same,binding result,FrzCDΔH2 (DB-H1-MA) [11],binds
same,binding result,FrzCD [12],binds
B9,binding result,FrzCD [2],binds
B10,stoichiometry N,SEC-MALS,2
